Data on eleven molecules can be found in patent publication US20140348834A1 (published 2014).

Assay [1] concerns the target T1, human IL-17A (human, UniProt Q16552 24-155). Nature of the assay: cell-based or functional assay.
The target of assay [2] is T1, human IL-17A. Nature of the assay: hIL17A ELISA. For orientation: ELISA stands for enzyme-linked immunosorbent assay.
Method: The following protocol is used to characterize the binding of IL-17 antibodies to human IL-17 by enzyme-linked immunosorbent assay (ELISA). […] Coat ELISA plate with 50 μl per well of Goat anti Mouse IgG-Fc at 2 ug/ml, overnight at 4° C. […] Wash plate 3×PBS/Tween. […] Add 50 μl Mab diluted to 1 μg/ml in PBS/0.1% BSA to appropriate wells. Incubate 1 hr at room temperature (RT). […] Wash plate 3× with PBS/Tween. […] Add 50 μl of serial diluted biotin-IL17 (human IL-17, IL-17A/F, cyno IL-17) to appropriate wells. Incubate 1 hr at room temperature (RT). […] Wash plate 3× with PBS/Tween. […] Incubate 1 hr at RT. […] Wash plate 3× with PBS/Tween. […] Stop reaction with 50 μl 2N H₂SO₄. […] Read absorbance at 450 nm.
Assay [3] addresses T2, human IL-17A/F (human, UniProt Q16552 24-155; Q96PD4 31-163).
T2 construct: Recombinant; biotinylated in the ELISA; also called hIL-17A/F; HuIL-17A/F
Briefly: SPR (Biacore 3000), antibody captured by anti-Fc, antigen in solution. In general terms: Surface plasmon resonance follows binding to a sensor surface in real time, without labels.
Method: (§1) The binding of antibodies to purified recombinant human, cyno, rat, mouse, rabbit IL-17 and human IL-17A/F were determined by surface plasmon resonance-based measurements with a Biacore® 3000 instrument (Biacore® AB, Uppsala, Sweden) using running HBS-EP (10 mM HEPES [pH 7.4], 150 mM NaCl, 3 mM EDTA, and 0.005% surfactant P20) at 25° C. […] Approximately 5000 RU of goat anti-mouse or anti-human IgG (Fcγ) fragment specific polyclonal antibody (Pierce Biotechnology Inc, Rockford, Ill.) diluted in 10 mM sodium acetate (pH 4.5) was directly immobilized across a CM5 research grade biosensor chip using a standard amine coupling kit according to manufacturer's instructions and procedures at 25 μg/ml. Unreacted moieties on the biosensor surface were blocked with ethanolamine. Modified carboxymethyl dextran surface in flowcell 2 and 4 was used as a reaction surface. Unmodified carboxymethyl dextran without goat anti-mouse or anti-human IgG in flow cell 1 and 3 was used as the reference surface. For kinetic analysis, rate equations derived from the 1:1 Langmuir binding model were fitted simultaneously to association and dissociation phases of all eight injections (using global fit analysis) with the use of Biaevaluation 4.0.1 software. Purified antibodies were diluted in HEPES-buffered saline for capture across goat anti-mouse or anti-human IgG specific reaction surfaces. Antibodies to be captured as a ligand (25 μg/ml) were injected over reaction matrices at a flow rate of 5 μl/min. The association and dissociation rate constants, kon (unit M-1s-1) and koff (unit s-1) were determined under a continuous flow rate of 25 μl/min. Rate constants were derived by making kinetic binding measurements at ten different antigen concentrations ranging from 10 nM to 200 nM. The equilibrium dissociation constant (unit M) of the reaction between antibodies and recombinant purified IL-17 antigens was then calculated from the kinetic rate constants by the following formula: KD=koff/kon. Binding was recorded as a function of time and kinetic rate constants are calculated. In this assay, on-rates as fast as 10⁶ M⁻¹ s⁻¹ and off-rates as slow as 10⁻⁶ s⁻¹ can be measured.

Assay [4] addresses T3, rat IL-17A (rat, UniProt Q61453 18-150, limits assumed).
T3 construct: Purified recombinant protein in SPR
T3 sequence (looked up): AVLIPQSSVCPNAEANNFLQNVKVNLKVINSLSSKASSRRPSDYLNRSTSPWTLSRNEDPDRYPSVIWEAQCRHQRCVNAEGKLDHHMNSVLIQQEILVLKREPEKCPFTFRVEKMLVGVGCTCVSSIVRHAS
The description is as above.
Method: as §1

For assay [5], the target named is T1, human IL-17A. The assay is described as above.
Method: as §1
Assay [6] addresses T4, mouse IL-17A (mouse, UniProt Q62386 26-158, limits assumed).
T4 construct: Purified recombinant protein in SPR; also called MuIL-17A; murine IL-17A
T4 sequence (looked up): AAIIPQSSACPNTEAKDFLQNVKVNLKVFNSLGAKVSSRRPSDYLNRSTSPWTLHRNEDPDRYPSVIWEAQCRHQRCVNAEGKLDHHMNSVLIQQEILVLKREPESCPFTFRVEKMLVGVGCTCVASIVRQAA
The assay is described as above.
Method: as §1

For assay [7], the target named is T5, cynomolgus monkey IL-17A (cynomolgus monkey, UniProt A0A2K5TTB0 24-155).
T5 construct: biotinylated in the ELISA; also called cyno IL-17; Cyno IL-17A
The assay is described as above.
Method: as §1

Assay [8] has as its target T1, human IL-17A. Briefly: cell-based or functional assay. This is another data set of the same source.
The target in assay [9] is T5, cynomolgus monkey IL-17A. Briefly: cell-based or functional assay.
For assay [10], the target named is T2, human IL-17A/F. Nature of the assay: SPR (Biacore 3000), antibody captured by anti-Fc, antigen in solution. The source holds these as a separate data set.
Method: as §1
Assay [11] addresses T3, rat IL-17A. Described as above. This is another data set of the same source.
Method: as §1
Assay [12] deals with T1, human IL-17A. The assay is described as above. This is another data set of the same source.
Method: as §1
Assay [13] addresses T4, mouse IL-17A. The description is as above. This is another data set of the same source.
Method: as §1
Assay [14] concerns the target T5, cynomolgus monkey IL-17A. The assay is described as above. This is another data set of the same source.
Method: as §1

Changes are numbered by the printed parent chain. Like-named read-outs stand apart in the source and are kept apart here.

T5 sequence (A0A2K5TTB0 entry or part of it): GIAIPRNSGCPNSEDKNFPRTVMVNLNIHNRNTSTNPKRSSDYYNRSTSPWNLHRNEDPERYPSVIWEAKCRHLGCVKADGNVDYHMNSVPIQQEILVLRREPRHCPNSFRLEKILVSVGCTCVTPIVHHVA
T1 sequence (Q16552 24-155): as the sequence (A0A2K5TTB0 entry or part of it) above, with A3T, S8P, S34N, V77I, K78N, R104P counted along it
T2 sequence (Q16552 24-155, chain 1 of 2): as the sequence (A0A2K5TTB0 entry or part of it) above, with A3T, S8P, S34N, V77I, K78N, R104P counted along it
T2 sequence (Q96PD4 31-163, chain 2 of 2): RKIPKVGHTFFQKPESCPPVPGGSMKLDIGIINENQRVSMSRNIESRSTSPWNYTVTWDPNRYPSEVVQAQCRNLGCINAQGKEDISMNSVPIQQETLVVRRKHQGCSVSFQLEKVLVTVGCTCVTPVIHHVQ

B1: ML109-7D7 (antibody, V domains shown)
VH: QVQLQQSGAELVRPGTSVTLSCKASGYRFTDYEIHWIKQTPAQVLEWIGVTDPESGGTLHNPKFDGKATLTADKSSRTAYMELRSLTSEDSAVYYCTRYYKYESFYGMDYWGQGTSVTVSS
VL: QIVLTQSPAIMSAFPGEKVTMTCSASSSISYMCWYQQKPGTSPKRWICDTSKLASGVPVRFSGSGSGTSYSLTINSMETEDAATYYCQQRSSYPWTFGGGTKVEIKR
Regarding B1, the “Potency (pM), IL-17-driven IL-6 production in HS27 cells” value (shortened to “Potency (pM)”) in assay [1] was determined as 81 pM.

B2: IL17-h10F7.6 (antibody, V domains shown)
VH: EVQLVQSGAEVKKPGSSVKVSCKASGYTFTDYEIHWVRQAPGQGLEWIGVNDPESGGTFYNQKFDGRATLTADKSTSTAYMELSSLRSEDTAVYYCTRYYRYESFYGMDYWGQGTTVTVSS
VL: DIQLTQSPSSLSASVGDRVTITCSASSSISYIYWFQQKPGKSPKRWIYATFELASGVPSRFSGSGSGTDYTLTISSLQPEDFATYYCHQRSSYPWTFGQGTKLEIKR
notes: IgG; constant regions not specified; also called h10F7.6 (VH.1a-Vk.1a)
In assay [2], B2 yielded a half-maximal effective concentration (EC50) of 0.05 nM. Also, the Kd in [3] is 1.14 nM; in assay [4] it was 0.919 nM; in assay [5] it was 0.302 nM; in [6], 0.98 nM; in assay [7] it was 0.217 nM. The koff in assay [3] is 0.000696 s⁻¹; in assay [4] it was 0.000454 s⁻¹; in [5], 0.000185 s⁻¹; in assay [6], 0.000384 s⁻¹; in assay [7], 0.000154 s⁻¹. Further, the kon in [3] was 609000 M⁻¹ s⁻¹; in [4] it was 494000 M⁻¹ s⁻¹; in assay [5], 612000 M⁻¹ s⁻¹; in [6], 392000 M⁻¹ s⁻¹; in assay [7], 711000 M⁻¹ s⁻¹. The “Potency (pM)” value was 264 pM in assay [8] and 313 pM in [9].

B3: IL17-h10F7.11 (antibody, V domains shown)
VH: B2 VH
VL: EIVLTQSPDFQSVTPKEKVTITCSASSSISYIYWFQQKPDQSPKRWIYATFELASGVPSRFSGSGSGTDYTLTINSLEAEDAATYYCHQRSSYPWTFGQGTKLEIKR
notes: IgG; constant regions not specified; also called h10F7.11 (VH.1a-Vk.2a)
Turning to B3, in assay [2], the response was half-maximal at 0.1 nM (EC50). The Kd came out at 2.11 nM in assay [3]; 3.77 nM in assay [4]; 0.524 nM in assay [5]; 2.21 nM in assay [6]; 0.773 nM in assay [7]. The koff in [3] was found to be 0.00086 s⁻¹; in assay [4] it was 0.000667 s⁻¹; in assay [5], 0.000142 s⁻¹; in assay [6] it was 0.000522 s⁻¹; in assay [7], 0.000351 s⁻¹. Moreover, the kon in assay [3] stood at 408000 M⁻¹ s⁻¹; in assay [4], 177000 M⁻¹ s⁻¹; in assay [5], 271000 M⁻¹ s⁻¹; in assay [6] it was 236000 M⁻¹ s⁻¹; in assay [7] it was 454000 M⁻¹ s⁻¹. Moreover, the “Potency (pM)” value in assay [8] came out at 326 pM; in assay [9], 622 pM.

B4: IL17-h10F7.15 (antibody, V domains shown)
VH: B2 VH
VL: B2 VL with D1E, Q3V
notes: IgG; constant regions not specified
In the case of B4, a half-maximal response in assay [2] (EC50) required 0.14 nM. In addition, the “Potency (pM)” value in assay [8] is 309 pM; in assay [9], 499 pM.

B5: IL17-h10F7.17 (antibody, V domains shown)
VH: B2 VH
VL: B3 VL with E1Q
notes: as for B4
Regarding B5, in [2], the concentration giving a half-maximal response (EC50) was determined as 0.1 nM. The figures for the “Potency (pM)” value in assay [8] and in assay [9] were 510 pM and 293 pM, respectively.

B6: IL17-h10F7.13 (antibody, V domains shown)
VH: B2 VH
VL: B2 VL with D1Q, Q3V
notes: as for B4
B6 yielded a half-maximal effective concentration (EC50) in assay [2] of 0.1 nM. In addition, the “Potency (pM)” value was 242 pM in [8] and 429 pM in assay [9].

B7: ML109-10G9 (antibody, V domains shown)
VH: QVQLKESGPALVAPSQSLSFTCTISGFSLSSYGVHWVRQPPGKGLEWLVVIWSDGTTTYNSALKSRLSISKDNSKSQVFLKMNSLQTDDTAMYYCARDGYYIYTMDYWGQGTSVTVSS
VL: DVVMTQTPLSLPVSLGDQASISCRSSQSLVHSNGNTYLHWYLQRPGQSPKLLIYKVSNRFSGVPDRFSGSGSGTDFTLKISRVEAEDLGLYFCSQGTHAPLTFGAGTKLELNR
Take B7: the “Potency (pM)” value in assay [1] was found to be 131 pM.

B8: ML109-6C6 (antibody, V domains shown)
VH: QVQLQQSGAELVRPGASVKLSCKASGYTFSDYEIHWVKQTPVHGLAWIGVIHPGNGGTAYNQKFKDKATLTADKSSSTAYMELSSLTSEDSAVYYCERFLTYEGYFDYWGQGTTLTVSS
VL: SIVMTQTPKFLLVSAGDRVTITCKASQSVNNDVAWYQHKPGQSPKLLINYASNRYTGVPDRFTGSGYGTDFTFTISTVQAEDLAIYFCQQDYGSPYTFGGGTKLEIKR
notes: Hybridoma-derived murine mAb; also called 6C6.3B4
As for B8, the equilibrium dissociation constant (Kd) in [10] is 0.189 nM; in [11], 0.142 nM; in assay [12] it was 0.0187 nM; in assay [13], 0.357 nM; in assay [14], 0.0425 nM. Further, the koff stood at 0.000366 s⁻¹ in assay [10]; 0.000704 s⁻¹ in [11]; 6.78e-05 s⁻¹ in assay [12]; 0.00087 s⁻¹ in assay [13]; 0.000116 s⁻¹ in assay [14]. Further, the kon in [10] came out at 1.94e+06 M⁻¹ s⁻¹; in assay [11], 4.95e+06 M⁻¹ s⁻¹; in assay [12], 3.63e+06 M⁻¹ s⁻¹; in assay [13] it was 2.44e+06 M⁻¹ s⁻¹; in [14] it was 2.73e+06 M⁻¹ s⁻¹. The “Potency (pM)” value in assay [1] stood at 36 pM.

B9: ML109-5C5 (antibody, V domains shown)
VH: B8 VH with S25L, S30T, I34F, A46E, K63N, K65R, A92G, E97T, T114A
VL: NIVMTQTPKFLLVSPGDRVTITCKASQSVSIDVGWFQQKPGQSPKLLIYHASNRYTGVPDRFTGSGYGTDFTFTVNTVQAEDLAVYFCQQDYSSPYTFGGGTKLELKR
With B9, the “Potency (pM)” value in assay [1] was determined as 23 pM.

B10: ML109-8B12 (antibody, V domains shown)
VH: QVQLKESGPGLVAPSQSLSITCTISGFSLTSYGVHWVRQPPGKGLEWLVVIWSDGTTTYNSALKSRLSITRDNSKSQVFLKMNSLQTDDTAIYYCARDSTWDYYYTMDYWGQGTPVTVSS
VL: DVVMTQTPLSLPVSLGDQASISCRSSQSLVHSNGNTYLHWYLQKPGQSPKLLIYKVSNRFSGVPDRFSGSGSGTDFTLKISRVEAEDLGVYFCSQSTHVYTFGGGTKLEIKR
For the molecule B10, the “Potency (pM)” value in assay [1] was 137 pM.

B11: m10F7hIgG1 (antibody, V domains shown)
VH: QVQLQQSGAELVRPGTSVTLSCKASGYIFTDYEIHWVKQTPVHGLEWIGVNDPESGGTFYNQKFDGKAELTADKSSSTAYMELRSLTSEDSGVYYCTRYYRYESFYGMDYWGQGTSITVSS
VL: QIVLTQSPAIMSASPGEKVTMTCSASSSISYIYWFQQKPGTSPKRWIYATFELASGVPARFSGSGSGTSYSLTISSMEAEDAATYYCHQRSSYPWTFGGGSKLEIKR
For the molecule B11, the “Potency (pM)” value in assay [8] amounted to 40 pM; in assay [9] it was 79 pM.

In general, EC50 refers to the concentration at which the effect is half-maximal. A word on the Kd: it is the constant that tells how readily two partners part at equilibrium. By koff is commonly meant a measure of how fast the partners let go of each other. Broadly, the kon is the rate constant with which the complex forms.
